Experimental data taken from patent US20190284293A1, “COMBINATION THERAPY WITH ANTI-CD73 ANTIBODIES” (BRISTOL-MYERS SQUIBB COMPANY, priority 2016, published 2019).

What was measured:
Assay in all cases: SPR, antibody binding to anti-his Fab captured FcgR-his (% Rmax)
Conditions in all cases: 1 μM antibody
[1] = target: CD16a-V158 (FcgRIIIa-V158) (Homo sapiens, UniProt P08637, F176V)
Description: (§1) The binding of antibodies to Fc gamma receptors (FcγRs or FcgRs) was studied using biosensor technologies including Biacore surface plasmon resonance (SPR) and Fortebio Biolayer Interferometry (BLI). SPR studies were performed on a Biacore T100 instrument (GE Healthcare) at 25° C. The Fab fragment from a murine anti-6×His antibody was immobilized on a CM5 sensor chip using EDC/NHS to a density of −3000 RU. Various his-tagged FcgRs (7 ug/ml) were captured via the C-terminal his-tag using a contact time of 30 s at 10 ul/min, and the binding of 1.0 μM antibody was evaluated in a running buffer of 10 mM NaPO4, 130 mM NaCl, 0.05% p20 (PBS-T) pH 7.1. FcgRs used for these experiments included CD64 (FcgRI), CD32a-H131 (FcgRIIa-H131), CD32a-R131 (FcgRIIa-R131), CD32b (FcgRIIb), CD16a-V158 (FcgRIIIa-V158), CD16b-NA1 (FcgRIIIb-NA1), and CD16B-NA2 (FcgRIIIb-NA2). BLI experiments were performed on a Fortebio Octet RED instrument (Pall, Fortebio) at 25° C. in 10 mM NaPO4, 130 mM NaCl, 0.05% p20 (PBS-T) pH 7.1. Antibodies were captured out of undiluted expression supernatants on protein A coated sensors, followed by the binding of 1 μM hCD32a-H131, hCD32a-R131, hCD32b, hCD16a-V158, or 0.1 μM hCD64 analytes.

[2] = target: CD16B-NA2 (FcgRIIIb-NA2) (Homo sapiens, UniProt O75015)
CD16B-NA2 (FcgRIIIb-NA2), sequence (O75015 17-200 limits assumed): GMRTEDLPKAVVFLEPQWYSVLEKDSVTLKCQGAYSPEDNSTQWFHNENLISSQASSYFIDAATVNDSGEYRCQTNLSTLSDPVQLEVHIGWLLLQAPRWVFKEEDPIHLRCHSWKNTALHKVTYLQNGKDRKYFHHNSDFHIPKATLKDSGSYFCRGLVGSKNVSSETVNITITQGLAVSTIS
Description: as §1

[3] = target: T1, CD32a-H131 (FcgRIIa-H131) (Homo sapiens, UniProt P12318)
T1 sequence (P12318 34-217 limits assumed): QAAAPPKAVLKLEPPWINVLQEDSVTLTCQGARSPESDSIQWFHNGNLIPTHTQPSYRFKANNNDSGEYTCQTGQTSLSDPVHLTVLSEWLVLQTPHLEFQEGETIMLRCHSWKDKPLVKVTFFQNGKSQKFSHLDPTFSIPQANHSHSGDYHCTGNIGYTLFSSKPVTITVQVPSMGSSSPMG
Description: as §1

[4] = target: T2, CD32a-R131 (FcgRIIa-R131) (Homo sapiens, UniProt P12318, H167R)
T2 sequence (P12318 34-217 H167R limits assumed): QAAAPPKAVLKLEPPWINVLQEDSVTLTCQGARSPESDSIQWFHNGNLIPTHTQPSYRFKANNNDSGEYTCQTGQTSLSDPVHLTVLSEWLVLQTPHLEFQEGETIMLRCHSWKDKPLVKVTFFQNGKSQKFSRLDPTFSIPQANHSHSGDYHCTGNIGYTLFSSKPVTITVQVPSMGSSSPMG
Description: as §1

[5] = target: T3, CD32b (FcgRIIb) (Homo sapiens, UniProt P31994)
T3 sequence (P31994 43-310): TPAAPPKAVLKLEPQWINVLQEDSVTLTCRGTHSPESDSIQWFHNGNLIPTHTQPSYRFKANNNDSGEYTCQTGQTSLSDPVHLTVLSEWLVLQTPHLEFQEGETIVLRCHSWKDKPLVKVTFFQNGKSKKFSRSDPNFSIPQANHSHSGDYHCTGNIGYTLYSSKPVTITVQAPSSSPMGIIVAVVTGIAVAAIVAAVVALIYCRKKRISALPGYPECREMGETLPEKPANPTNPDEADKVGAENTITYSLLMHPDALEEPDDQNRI
Description: as §1

[6] = target: CD64 (FcgRI) (Homo sapiens, UniProt P12314)
CD64 (FcgRI), sequence (P12314 16-374): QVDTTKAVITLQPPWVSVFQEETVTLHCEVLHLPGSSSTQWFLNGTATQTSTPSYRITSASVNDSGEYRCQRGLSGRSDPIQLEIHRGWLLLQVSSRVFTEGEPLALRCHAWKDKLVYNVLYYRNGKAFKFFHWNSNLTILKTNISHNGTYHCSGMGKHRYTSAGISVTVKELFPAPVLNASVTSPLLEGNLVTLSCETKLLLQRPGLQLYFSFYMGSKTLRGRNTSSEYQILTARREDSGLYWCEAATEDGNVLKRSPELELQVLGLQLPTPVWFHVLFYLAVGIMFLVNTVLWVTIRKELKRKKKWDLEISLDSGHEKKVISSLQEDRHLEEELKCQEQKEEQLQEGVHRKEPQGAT
Description: as §1

CD16a-V158 (FcgRIIIa-V158), sequence (P08637 17-208 F176V limits assumed): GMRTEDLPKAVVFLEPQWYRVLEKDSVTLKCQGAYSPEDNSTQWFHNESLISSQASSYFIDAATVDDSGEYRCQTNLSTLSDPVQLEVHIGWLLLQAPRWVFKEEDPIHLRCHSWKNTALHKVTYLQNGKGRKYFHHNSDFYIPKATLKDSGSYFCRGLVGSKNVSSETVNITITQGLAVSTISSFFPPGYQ

B1: mAb13-IgG2.3 (protein)
constant: ASTKGPSVFPLAPCSRSTSESTAALGCLVKDYFPEPVTVSWNSGALTSGVHTFPAVLQSSGLYSLSSVVTVPSSNFGTQTYTCNVDHKPSNTKVDKTVERKSCVECPPCPAPPVAGPSVFLFPPKPKDTLMISRTPEVTCVVVDVSHEDPEVQFNWYVDGVEVHNAKTKPREEQFNSTFRVVSVLTVVHQDWLNGKEYKCKVSNKGLPAPIEKTISKTKGQPREPQVYTLPPSREEMTKNQVSLTCLVKGFYPSDIAVEWESNGQPENNYKTTPPMLDSDGSFFLYSKLTVDKSRWQQGNVFSCSVMHEALHNHYTQKSLSLSPGK
modifications: left off: another chain or arm of the molecule
% Rmax hCD16a-V158 [1]: 1%
% Rmax hCD16B-NA2 [2]: 0%
% Rmax hCD32a-H131 [3]: 40%
% Rmax hCD32a-R131 [4]: 7%
% Rmax hCD32b [5]: 1%
% Rmax hCD64 [6]: 2%

B2: mAb4-IgG2.5 (protein)
constant: ASTKGPSVFPLAPSSRSTSESTAALGCLVKDYFPEPVTVSWNSGALTSGVHTFPAVLQSSGLYSLSSVVTVPSSNFGTQTYTCNVDHKPSNTKVDKTVERKCCVECPPCPAPPVAGPSVFLFPPKPKDTLMISRTPEVTCVVVDVSHEDPEVQFNWYVDGVEVHNAKTKPREEQFNSTFRVVSVLTVVHQDWLNGKEYKCKVSNKGLPAPIEKTISKTKGQPREPQVYTLPPSREEMTKNQVSLTCLVKGFYPSDIAVEWESNGQPENNYKTTPPMLDSDGSFFLYSKLTVDKSRWQQGNVFSCSVMHEALHNHYTQKSLSLSPGK
modifications: left off: another chain or arm of the molecule
% Rmax hCD16a-V158 [1]: 1%
% Rmax hCD16B-NA2 [2]: 0%
% Rmax hCD32a-H131 [3]: 46%
% Rmax hCD32a-R131 [4]: 8%
% Rmax hCD32b [5]: 1%
% Rmax hCD64 [6]: 2%

B3: mAb13-IgG2.5 (protein)
constant: ASTKGPSVFPLAPSSRSTSESTAALGCLVKDYFPEPVTVSWNSGALTSGVHTFPAVLQSSGLYSLSSVVTVPSSNFGTQTYTCNVDHKPSNTKVDKTVERKCCVECPPCPAPPVAGPSVFLFPPKPKDTLMISRTPEVTCVVVDVSHEDPEVQFNWYVDGVEVHNAKTKPREEQFNSTFRVVSVLTVVHQDWLNGKEYKCKVSNKGLPAPIEKTISKTKGQPREPQVYTLPPSREEMTKNQVSLTCLVKGFYPSDIAVEWESNGQPENNYKTTPPMLDSDGSFFLYSKLTVDKSRWQQGNVFSCSVMHEALHNHYTQKSLSLSPGK
modifications: left off: another chain or arm of the molecule
% Rmax hCD16a-V158 [1]: 0%
% Rmax hCD16B-NA2 [2]: −2%
% Rmax hCD32a-H131 [3]: 39%
% Rmax hCD32a-R131 [4]: 4%
% Rmax hCD32b [5]: −2%
% Rmax hCD64 [6]: −2%

B4: mAb7-IgG2.5 (protein)
constant: ASTKGPSVFPLAPSSRSTSESTAALGCLVKDYFPEPVTVSWNSGALTSGVHTFPAVLQSSGLYSLSSVVTVPSSNFGTQTYTCNVDHKPSNTKVDKTVERKCCVECPPCPAPPVAGPSVFLFPPKPKDTLMISRTPEVTCVVVDVSHEDPEVQFNWYVDGVEVHNAKTKPREEQFNSTFRVVSVLTVVHQDWLNGKEYKCKVSNKGLPAPIEKTISKTKGQPREPQVYTLPPSREEMTKNQVSLTCLVKGFYPSDIAVEWESNGQPENNYKTTPPMLDSDGSFFLYSKLTVDKSRWQQGNVFSCSVMHEALHNHYTQKSLSLSPGK
modifications: left off: another chain or arm of the molecule
% Rmax hCD16a-V158 [1]: 2%
% Rmax hCD16B-NA2 [2]: 0%
% Rmax hCD32a-H131 [3]: 72%
% Rmax hCD32a-R131 [4]: 19%
% Rmax hCD32b [5]: 2%
% Rmax hCD64 [6]: 4%

B5: mAb11-IgG2.5 (protein)
constant: ASTKGPSVFPLAPSSRSTSESTAALGCLVKDYFPEPVTVSWNSGALTSGVHTFPAVLQSSGLYSLSSVVTVPSSNFGTQTYTCNVDHKPSNTKVDKTVERKCCVECPPCPAPPVAGPSVFLFPPKPKDTLMISRTPEVTCVVVDVSHEDPEVQFNWYVDGVEVHNAKTKPREEQFNSTFRVVSVLTVVHQDWLNGKEYKCKVSNKGLPAPIEKTISKTKGQPREPQVYTLPPSREEMTKNQVSLTCLVKGFYPSDIAVEWESNGQPENNYKTTPPMLDSDGSFFLYSKLTVDKSRWQQGNVFSCSVMHEALHNHYTQKSLSLSPGK
modifications: left off: another chain or arm of the molecule
% Rmax hCD16a-V158 [1]: 0%
% Rmax hCD16B-NA2 [2]: −1%
% Rmax hCD32a-H131 [3]: 40%
% Rmax hCD32a-R131 [4]: 13%
% Rmax hCD32b [5]: 3%
% Rmax hCD64 [6]: 0%

B6: mAb5-IgG2.5 (protein)
constant: ASTKGPSVFPLAPSSRSTSESTAALGCLVKDYFPEPVTVSWNSGALTSGVHTFPAVLQSSGLYSLSSVVTVPSSNFGTQTYTCNVDHKPSNTKVDKTVERKCCVECPPCPAPPVAGPSVFLFPPKPKDTLMISRTPEVTCVVVDVSHEDPEVQFNWYVDGVEVHNAKTKPREEQFNSTFRVVSVLTVVHQDWLNGKEYKCKVSNKGLPAPIEKTISKTKGQPREPQVYTLPPSREEMTKNQVSLTCLVKGFYPSDIAVEWESNGQPENNYKTTPPMLDSDGSFFLYSKLTVDKSRWQQGNVFSCSVMHEALHNHYTQKSLSLSPGK
modifications: left off: another chain or arm of the molecule
% Rmax hCD16a-V158 [1]: 4%
% Rmax hCD16B-NA2 [2]: 1%
% Rmax hCD32a-H131 [3]: 89%
% Rmax hCD32a-R131 [4]: 26%
% Rmax hCD32b [5]: 5%
% Rmax hCD64 [6]: 6%

B7: mAb8-IgG2.5 (protein)
constant: ASTKGPSVFPLAPSSRSTSESTAALGCLVKDYFPEPVTVSWNSGALTSGVHTFPAVLQSSGLYSLSSVVTVPSSNFGTQTYTCNVDHKPSNTKVDKTVERKCCVECPPCPAPPVAGPSVFLFPPKPKDTLMISRTPEVTCVVVDVSHEDPEVQFNWYVDGVEVHNAKTKPREEQFNSTFRVVSVLTVVHQDWLNGKEYKCKVSNKGLPAPIEKTISKTKGQPREPQVYTLPPSREEMTKNQVSLTCLVKGFYPSDIAVEWESNGQPENNYKTTPPMLDSDGSFFLYSKLTVDKSRWQQGNVFSCSVMHEALHNHYTQKSLSLSPGK
modifications: left off: another chain or arm of the molecule
% Rmax hCD16a-V158 [1]: 2%
% Rmax hCD16B-NA2 [2]: 0%
% Rmax hCD32a-H131 [3]: 59%
% Rmax hCD32a-R131 [4]: 14%
% Rmax hCD32b [5]: 3%
% Rmax hCD64 [6]: 3%

B8: mAb6-IgG2.5 (protein)
constant: ASTKGPSVFPLAPSSRSTSESTAALGCLVKDYFPEPVTVSWNSGALTSGVHTFPAVLQSSGLYSLSSVVTVPSSNFGTQTYTCNVDHKPSNTKVDKTVERKCCVECPPCPAPPVAGPSVFLFPPKPKDTLMISRTPEVTCVVVDVSHEDPEVQFNWYVDGVEVHNAKTKPREEQFNSTFRVVSVLTVVHQDWLNGKEYKCKVSNKGLPAPIEKTISKTKGQPREPQVYTLPPSREEMTKNQVSLTCLVKGFYPSDIAVEWESNGQPENNYKTTPPMLDSDGSFFLYSKLTVDKSRWQQGNVFSCSVMHEALHNHYTQKSLSLSPGK
modifications: left off: another chain or arm of the molecule
% Rmax hCD16a-V158 [1]: 2%
% Rmax hCD16B-NA2 [2]: 0%
% Rmax hCD32a-H131 [3]: 75%
% Rmax hCD32a-R131 [4]: 17%
% Rmax hCD32b [5]: 4%
% Rmax hCD64 [6]: 3%
